Reference: US20260028421A1 (JIANGSU HENGRUI PHARMACEUTICALS, published 2026)
Residue numbers refer to the chain shown, from its start.

B1: P1-F10 CHI (antibody, human IgG1, kappa, V domains shown)
VH: EVQLVESGGGLVKPGGSLKLSCAASGFAFSDYGMHWVRQAPEKGLEWVAHISSGSSTIYYADTVKGRFTISRDNVKNTLFLQMTSLRSEDTAMYYCARSRNYYGSRVFDYWGQGTPLTVSS
VL: QIVLTQSPALMSVSPGEKVTMTCSASSSVNYMYWYQQKPRSSPKPWIYLTSNLASGVPARFSGSGSGTSYSLTISSMEAEDAATYYCQQWNSNPPTFGSGTKLEIKR
notes: chimeric
B2: P3-D9 CHI (antibody, human IgG1, kappa, V domains shown)
VH: B1 VH with A61G, V75A, A97T, P116T
VL: B1 VL with N30S, N52S, S75N, S76N, M77V, N91S, L103V
notes: chimeric
B3: P1-D9 CHI (antibody, human IgG1, kappa, V domains shown)
VH: B1 VH with A28S, V48I, V75A, V107I, P116T
VL: B1 VL with L10R, V13A, N30S, N91S
notes: chimeric
B4: P1-D3 CHI (antibody, human IgG1, kappa, V domains shown)
VH: QIQLIQSGPELKKPGETVKISCKASGYTFTTYGMSWVKQAPGKGLKWMGWINTYSGVPTYADDFKGRFAFSLETSANTAYLQINNLKNEDTATYFCARRGYSNLYYYALDYWGQGASVTVSS
VL: QIVLTQSPAIMSASPGEKVTMTCSASSSVNYMHWYQQKSGTSPKRWIYDTSKLASGVPTRFSGSGSGTSYSLTISSMEAEDAATYFCQQWSSNPSTFGGGTKLEIKR
notes: chimeric
B5: P1-D2 CHI (antibody, human IgG1, kappa, V domains shown)
VH: EFQLQQSGPELVKPGASVKISCKASGYSFTDHNMNWVKQSNGKSLEWIGVINPKYGTISNNQKFKGKATLTVDQSSSTAYMQLNSLTAEDSAVYYCARDDYPNYFDYWGQGTTLTVSS
VL: QIVLTQSPAIMSASPGEKVTISCSANSSVNYIYWYQQKPGSSPKPWIYRTSNLASGVPARFSGSGSGTSYSLTISSMEAEDAATYYCQQYHSFPPTFGGGTKLEIKR
notes: chimeric
B6: HJ-3 (bispecific antibody)
chain 1: not shown
chain 2: DIQMTQSPSSVSASVGDRVTITCRASQDIANYLSWYQQKPGKSPKLLIYGTSNLEVGVPSRFSGSRSGTDFTLTISSLQPEDFATYYCLQDKEFPRTFGGGTKVEIKGGGGSSGAPRFLTRPLAFVVSVGKDATLSSQIVGNPTPQVSWEKDKQPVTAGARFRLAQDGDLYRLKILDLQLSDSGQYVSRARNAIGEAFACLGLQVDAEA
chain 3: EVQLVQSGAEVKKPGSSVKVSCKASGYTFSNYLIEWVRQAPGQGLEWIGVIDPGVGDTNYNENFKGRATLTADKSTSTAYIELSSLRSEDTAVYYCAREDNTGTAFDYWGQGTTVTVSSASTKGPSVFPLAPSSKSTSGGTAALGCLVKDYFPEPVTVSWNSGALTSGVHTFPAVLQSSGLYSLSSVVTVPSSSLGTQTYICNVNHKPSNTKVDKKVEPKSCDKTHTCPPCPAPEAAGGPSVFLFPPKPKDTLMISRTPEVTCVVVDVSHEDPEVKFNWYVDGVEVHNAKTKPREEQYNSTYRVVSVLTVLHQDWLNGKEYKCKVSNKALPAPIEKTISKAKGQPREPQVCTLPPSREEMTKNQVSLSCAVKGFYPSDIAVEWESNGQPENNYKTTPPVLDSDGSFFLVSKLTVDKSRWQQGNVFSCSVMHEALHNHYTQKSLSLSPGKDYKDDDDK
chain 4: SIVMTQTPLSLSVTPGQPASISCKASQSVSSDVTWYLQKPGQSPQLLIYYVSEHYTGVPDRFSGSGYGTDFTLKISRVEAEDVGVYYCQQHHRFPLTFGQGTKLEIKRTVAAPSVFIFPPSDEQLKSGTASVVCLLNNFYPREAKVQWKVDNALQSGNSQESVTEQDSKDSTYSLSSTLTLSKADYEKHKVYACEVTHQGLSSPVTKSFNRGEC
B7: HJ-7 (bispecific antibody)
chain 1: not shown
chain 2: B6 chain 2 with L123K, F125S, S137C, T144F, A160V, S188C, I194H
chain 3: EVQLVQSGAEVKKPGSSVKVSCKASGYTFSNYLIEWVRQAPGQGLEWIGVIDPGVGDTNYNENFKGRATLTADKSTSTAYIELSSLRSEDTAVYYCAREDNTGTAFDYWGQGTTVTVSSASTKGPSVFPLAPSSKSTSGGTAALGCLVKDYFPEPVTVSWNSGALTSGVHTFPAVLQSSGLYSLSSVVTVPSSSLGTQTYICNVNHKPSNTKVDKKVEPKSCDKTHTCPPCPAPEAAGGPSVFLFPPKPKDTLMISRTPEVTCVVVDVSHEDPEVKFNWYVDGVEVHNAKTKPREEQYNSTYRVVSVLTVLHQDWLNGKEYKCKVSNKALPAPIEKTISKAKGQPREPQVCTLPPSREEMTKNQVSLSCAVKGFYPSDIAVEWESNGQPENNYKTTPPVLDSDGSFFLVSKLTVDKSRWQQGNVFSCSVMHEALHNHYTQKSLSLSPGK
chain 4: B6 chain 4
B8: HJ-6 (bispecific antibody)
chain 1: not shown
chain 2: B6 chain 2 with R121C, L123K, F125S, T144F, A160V, I194H
chain 3: B7 chain 3
chain 4: B6 chain 4
B9: HJ-9 (bispecific antibody)
chain 1: not shown
chain 2: B6 chain 2 with G108R, G109T, G110V, G111A, R121C, L123K, F125S, T144F, A160V, I194H
chain 3: B7 chain 3
chain 4: B6 chain 4
B10: HJ-11 (bispecific antibody)
chain 1: not shown
chain 2: DIQMTQSPSSVSASVGDRVTITCRASQDIANYLSWYQQKPGKSPKLLIYGTSNLEVGVPSRFSGSRSGTDFTLTISSLQPEDFATYYCLQDKEFPRTFGGGTKVEIKRTVASSGCPRFLTRPKASVVSVGKDATLSCQIVGNPFPQVSWEKDKQPVTAGVRFRLAQDGDLYRLKILDLQLSDSGQYVCRARNAHGEAFACLGLQVDAEA
chain 3: B7 chain 3
chain 4: B6 chain 4
B11: HJ-5 (bispecific antibody)
chain 1: not shown
chain 2: B6 chain 2 with L123K, F125S, T144F, A160V, I194H
chain 3: B7 chain 3
chain 4: B6 chain 4
B12: HJ-8 (bispecific antibody)
chain 1: not shown
chain 2: B10 chain 2 with C115A, C137S, C188S
chain 3: B7 chain 3
chain 4: B6 chain 4
B13: HJ-10 (bispecific antibody)
chain 1: not shown
chain 2: B10 chain 2 with C115A
chain 3: B7 chain 3
chain 4: B6 chain 4
B14: PL-4 (bispecific antibody)
chain 1: not shown
chain 2: DIVLTQSPASLAVSPGQRATITCRASESVSIHGTHLMHWYQQKPGQPPKLLIYAASKLESGVPARFSGSGSGTDFTLTINPVEAEDTANYYCQQSFEDPLTFGQGTKLEIKGGGGSGIPPKIECLPIDISIDEGKVLTVASCFTGEPTPEVTWSTGGRKIHSQEQGRFHIENTDDSTTLTIKDVQKQDGGLYTLTLRNEFGSDSATVNIHIRSI
chain 3: not shown
chain 4: not shown
B15: PL-7 (bispecific antibody)
chain 1: not shown
chain 2: B14 chain 2
chain 3: not shown
chain 4: not shown
B16: PL-18 (bispecific antibody)
chain 1: not shown
chain 2: B14 chain 2 with G112R, G113T, G114V, G115A, V136C, C142A
chain 3: not shown
chain 4: not shown
B17: PL-11 (bispecific antibody)
chain 1: not shown
chain 2: B14 chain 2 with G112R, G113T, G114V, G115A, C142A
chain 3: not shown
chain 4: not shown
B18: PL-13 (bispecific antibody)
chain 1: not shown
chain 2: B14 chain 2 with G112R, G113T, G114V, G115A
chain 3: not shown
chain 4: not shown
B19: PL-17 (bispecific antibody)
chain 1: not shown
chain 2: B14 chain 2 with G112R, G113T, G114V, G115A, C142A
chain 3: not shown
chain 4: not shown
B20: PL-9 (bispecific antibody)
chain 1: not shown
chain 2: B14 chain 2 with V136C, C142A
chain 3: not shown
chain 4: not shown
B21: PL-14 (bispecific antibody)
chain 1: not shown
chain 2: B14 chain 2 with G112R, G113T, G114V, G115A, C142A
chain 3: not shown
chain 4: not shown
B22: PL-15 (bispecific antibody)
chain 1: not shown
chain 2: B14 chain 2 with G112R, G113T, G114V, G115A, V136C, C142A
chain 3: not shown
chain 4: not shown
B23: PL-10 (bispecific antibody)
chain 1: not shown
chain 2: B14 chain 2
chain 3: not shown
chain 4: not shown
B24: PL-19 (bispecific antibody)
chain 1: not shown
chain 2: B14 chain 2 with G112R, G113T, G114V, G115A
chain 3: not shown
chain 4: not shown
B25: PL-12 (bispecific antibody)
chain 1: not shown
chain 2: B14 chain 2 with G112R, G113T, G114V, G115A, V136C, C142A
chain 3: not shown
chain 4: not shown
B26: PL-5 (bispecific antibody)
chain 1: not shown
chain 2: B14 chain 2 with C142A
chain 3: not shown
chain 4: not shown

The binders below were run against T1, hGUCY2C ECD-His (human, UniProt P25092 24-430) (assay: SPR Biacore, antibody captured).
T1 construct: also called human GUCY2C protein
From the text: To test the affinity of the GUCY2C monoclonal antibodies of the present disclosure for GUCY2C, in this test example, the instruments Biacore 8K and Biacore T200 were used to detect the ability of the antibodies to bind to hGUCY2C-ECD-His (SEQ ID NO: 3). The specific method is as follows: The antibody was affinity-captured using a Protein A biosensor chip conjugated with an anti-human antibody, then a solution containing GUCY2C Protein flowed on the surface of the chip, and reaction signals were detected in real time with an instrument to obtain association and dissociation curves. After dissociation was completed for each cycle, the biosensor chip was washed with 10 mM glycine-hydrochloric acid (pH 1.5) for regeneration. Data fitting was performed using a 1:1 model.

| Binder | Kd [nM] | koff [s⁻¹] | kon [M⁻¹ s⁻¹] |
| --- | --- | --- | --- |
| B1 | 8.64 | 0.000279 | 32300 |
| B2 | 26.5 | 0.000504 | 19000 |
| B3 | 19.6 | 0.000399 | 20300 |
| B4 | 5.06 | 0.000233 | 46000 |
| B5 | 0.92 | 0.00018 | 195000 |

The binders below were run against hTSLP (human, UniProt Q969D9 29-159) (assay: ELISA).

| Binder | EC50 [nM] |
| --- | --- |
| B6 | 3.23 |
| B7 | 2.18 |
| B8 | 2.88 |
| B9 | 3.18 |
| B10 | 3 |
| B11 | 2.64 |
| B12 | 3.33 |
| B13 | 3.17 |

What follows are binders tested against hIL5 (human, UniProt P05113 20-134) (assay: ELISA).

| Binder | EC50 [nM] |
| --- | --- |
| B6 | 17.4 |
| B7 | 17.7 |
| B8 | 37 |
| B9 | 10.9 |
| B10 | 9.46 |
| B11 | 16 |
| B12 | 18.7 |
| B13 | 20.8 |

The binders below were run against hCTLA4 (human, UniProt P16410 36-161) (assay: ELISA).
Sequence of hCTLA4 (P16410 36-161 limits assumed): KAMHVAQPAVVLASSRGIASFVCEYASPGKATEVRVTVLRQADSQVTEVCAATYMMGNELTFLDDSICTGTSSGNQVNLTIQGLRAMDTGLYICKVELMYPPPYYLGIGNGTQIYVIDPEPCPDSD

| Binder | EC50 [nM] |
| --- | --- |
| B14 | 6.5 |
| B15 | 7.3 |
| B16 | 6.7 |
| B17 | 5.6 |
| B18 | 4.4 |
| B19 | 6.2 |
| B20 | 5.5 |
| B21 | 6 |
| B22 | 3.2 |
| B23 | 6.9 |
| B24 | 6.5 |
| B25 | 8 |
| B26 | 6.7 |

These binders were tested against hPDL1 (human, UniProt Q9NZQ7 19-238) (assay: ELISA).
Sequence of hPDL1 (Q9NZQ7 19-238 limits assumed): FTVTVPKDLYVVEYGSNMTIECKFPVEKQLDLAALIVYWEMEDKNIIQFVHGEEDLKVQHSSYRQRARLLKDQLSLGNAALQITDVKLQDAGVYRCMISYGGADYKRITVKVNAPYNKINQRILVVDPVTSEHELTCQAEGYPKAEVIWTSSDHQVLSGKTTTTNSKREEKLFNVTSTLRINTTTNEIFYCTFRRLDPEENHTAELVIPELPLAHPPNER

| Binder | EC50 [nM] |
| --- | --- |
| B14 | 0.7 |
| B15 | 0.5 |
| B16 | 1.6 |
| B17 | 0.6 |
| B18 | 0.5 |
| B19 | 1.4 |
| B20 | 0.6 |
| B21 | 1.3 |
| B22 | 1.4 |
| B23 | 0.6 |
| B24 | 1.6 |
| B25 | 0.5 |
| B26 | 0.7 |

What follows are binders tested against T2, Human GUCY2C protein on cells (HCT116/hGUCY2C, HT-55, T84, LS1034, LS174T) (human, UniProt P25092 24-1073) (assay: flow cytometry on HCT116/hGUCY2C cells, PE anti-human IgG Fc secondary antibody).
T2 construct: also called GUCY2C on the cell surface

| Binder | EC50 (read off the curve) [nM] |
| --- | --- |
| B2 | ~1 |

Molecular target: T2, Human GUCY2C protein on cells …
Experiment: as above
Remark: another data set of the same source

| Binder | EC50 (read off the curve) [nM] |
| --- | --- |
| B1 | ~0.6 |
| B3 | ~0.7 |
| B4 | ~1 |
| B5 | ~0.7 |
